The text below walks through data of US20220135700A1 (published 2022).

Like-named read-outs stand apart in the source and are kept apart here.

In test [1] the target is T1, HER2 on the surface of HER2 overexpressing cancer cells (BT474) (human, UniProt P04626 23-1255).
T1 construct: whole, on cells; also called ErbB2; HER2/Neu
The experiment in a line: flow cytometry, dissociation from BT474 cells in the presence of a competing DARPin (FIG. 18A).
Experimental: Corresponding to 100 μl cell suspension, samples were washed twice in 1 ml PBS (0.2% NaN₃, 1% BSA) and centrifuged at 600 g for 30 sec at room temperature. Cells were resuspended in 1 ml PBS (0.2% NaN₃, 1% BSA) containing 100 nM of equivalent unlabeled binding agent. The dissociation reaction was incubated for the indicated times (15, 30, 60, 120, 180 and 240 min) at room temperature while continuously stirring in the dark. Dissociation was stopped by placing the cell pellets on ice. Each sample was washed once with 1 ml cold PBS.

Test [2] has as its target T1, HER2 on the surface of HER2 …. The experiment in a line: flow cytometry on BT474 cells, Alexa488-labelled agent. On the technique in general: Flow cytometry measures light scatter and fluorescence of single cells or particles in a stream.
For test [3], the target named is T2, HER2 (form used in the assay not stated) (human, UniProt P04626 23-652, limits assumed).
T2 construct: also called ErbB2
The experiment in a line: method not stated.

For test [4], the target named is T2, HER2 (form used in the assay not stated). In words: method not stated. This is another data set of the same source.

B1: 9_29-(G4S)4-G3 (designed binder)
chain: MRGSHHHHHHGSDLGKKLLEAARAGQDDEVRILMANGADVNAHDFYGITPLHLAANFGHLEIVEVLLKHGADVNAFDYDNTPLHLAADAGHLEIVEVLLKYGADVNASDRDGHTPLHLAAREGHLEIVEVLLKNGADVNAQDKFGKTAFDISIDNGNEDLAEILQKLGGGGSGGGGSGGGGSGGGGSRSDLGKKLLEAARAGQDDEVRILMANGADVNAKDEYGLTPLYLATAHGHLEIVEVLLKNGADVNAVDAIGFTPLHLAAFIGHLEIAEVLLKHGADVNAQDKFGKTAFDISIGNGNEDLAEILQKLN
notes: also called 9_20_G
As for B1, the “off-rate, times lower than monovalent G3” value in test [1] turned out to be 10 fold.

B2: 9_26-(G4S)4-G3 (designed binder)
chain: MRGSHHHHHHGSDLGKKLLEAARAGQDDEVRILMANGADVNAKDFYGITPLHLAAAYGHLEIVEVLLKHGADVNAHDWNGWTPLHLAAKYGHLEIVEVLLKHGADVNAIDNAGKTPLHLAAAHGHLEIVEVLLKYGADVNAQDKFGKTAFDISIDNGNEDLAEILQKLGGGGSGGGGSGGGGSGGGGSRSDLGKKLLEAARAGQDDEVRILMANGADVNAKDEYGLTPLYLATAHGHLEIVEVLLKNGADVNAVDAIGFTPLHLAAFIGHLEIAEVLLKHGADVNAQDKFGKTAFDISIGNGNEDLAEILQKLN
notes: also called 6_20_G
Regarding B2, the “off-rate, times lower than monovalent G3” value in test [1] is 10 fold.

B3: DARPin 929 (designed binder)
chain: MRGSHHHHHHGSDLGKKLLEAARAGQDDEVRILMANGADVNAHDFYGITPLHLAANFGHLEIVEVLLKHGADVNAFDYDNTPLHLAADAGHLEIVEVLLKYGADVNASDRDGHTPLHLAAREGHLEIVEVLLKNGADVNAQDKFGKTAFDISIDNGNEDLAEILQKLN
In the case of B3, the values for the Kd in test [2], in test [3] and in test [4] were 33.5 nM, 1 nM and 3.8 nM, respectively. Besides, the koff in test [2] amounted to 0.00221 s⁻¹; in test [4], 0.0008 s⁻¹. In addition, the kon in test [2] came to 69000 M⁻¹ s⁻¹; in test [4], 200000 M⁻¹ s⁻¹.

As a reminder, the Kd is the equilibrium constant for the complex coming apart. For orientation: koff means the first-order rate constant of dissociation. Read a high koff as a short-lived complex. A word on the kon: it is the rate constant with which the complex forms. A lower kon goes with slow association.
